The text below walks through data of patent US20050226848, “Transcriptional regulation of gene expression by small double-stranded modulatory RNA” (published 2005).

The data set addresses Bovine serum albumin (Bos taurus, UniProt P02769 P02769:25-607). Nature of the data set: EMSA; BSA control. As to the method:
To compare the affinity between NRSE dsDNA and NRSE dsRNA to NRSF/REST protein, an electrophoretic mobility shift assay (EMSA) was performed. NRSF/REST with cMyc-tag was expressed in 293T cells and immunoprecipitated with anti-cMyc antiboby. After purification, the protein was incubated with either NRSE dsDNAs or dsRNAs. A range of NRSF/REST protein concentrations was tested; the highest one tested produced a shift in dsDNA migration, whereas a 16-fold lower concentration of NRSF/REST protein was enough to produce a shift in dsRNA (FIG. 6C). […] Binding of NRSF/REST to the sequence of the MCS control dsRNAs or dsDNAs was not observed. […] This highly specific binding between NRSE dsRNA and NRSF/REST protein may contribute to a functional switch of the NRSF/REST machinery from transcriptional repressor to activator.

Bovine serum albumin, sequence (P02769 25-607, one chain of several): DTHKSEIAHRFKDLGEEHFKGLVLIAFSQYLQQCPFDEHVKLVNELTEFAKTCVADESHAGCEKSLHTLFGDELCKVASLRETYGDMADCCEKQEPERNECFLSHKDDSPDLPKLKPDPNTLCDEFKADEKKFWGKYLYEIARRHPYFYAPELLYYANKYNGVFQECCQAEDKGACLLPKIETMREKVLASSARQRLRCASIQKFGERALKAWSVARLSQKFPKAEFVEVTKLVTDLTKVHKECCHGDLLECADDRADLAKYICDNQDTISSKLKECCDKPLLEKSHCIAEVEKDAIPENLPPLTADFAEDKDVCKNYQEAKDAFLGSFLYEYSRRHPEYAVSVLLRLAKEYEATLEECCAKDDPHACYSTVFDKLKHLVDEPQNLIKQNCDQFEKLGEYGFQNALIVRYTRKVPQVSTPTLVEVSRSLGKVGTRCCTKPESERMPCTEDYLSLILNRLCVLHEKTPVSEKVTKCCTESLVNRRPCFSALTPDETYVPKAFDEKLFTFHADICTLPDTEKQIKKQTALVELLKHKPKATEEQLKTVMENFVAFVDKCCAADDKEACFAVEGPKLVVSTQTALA

B1: NRSE/RE1 dsDNA (dsDNA)
DNA 1: TTCAGCACCACGGACAGCGCC
DNA 2: GGCGCTGTCCGTGGTGCTGAA
For B1, the binding result is given as “no binding”.

B2: NRSE dsRNA (dsRNA)
RNA 1: UUCAGCACCACGGACAGCGCC
RNA 2: GGCGCUGUCCGUGGUGCUGAA
B2: the binding result is given as “no binding”.
